Test results as given in patent publication US20250011363A1, “OPTIMIZED SHORTENED PEPTIDE THAT BINDS TO ACETYLCHOLINE RECEPTOR, AND USE THEREOF” (SKINMED CO., LTD., priority 2021, published 2025).

B1: 6mer-2-765 (peptide)
peptide: KHSPRK
B2: 6mer-2-760 (peptide)
peptide: KIPVKK
B3: 6mer-2-733 (peptide)
peptide: RTPARK
B4: 6mer-2-768 (peptide)
peptide: KYMGRK
B5: 6mer-2-755 (peptide)
peptide: RYNDKK
B6: 6mer-2-723 (peptide)
peptide: KEDMKR
B7: 6mer-2-759 (peptide)
peptide: RFDEKK
B8: 6mer-2-777 (peptide)
peptide: KNDVRR
B9: 6mer-2-774 (peptide)
peptide: KFDARK
B10: 6mer-2-748 (peptide)
peptide: RFDKKR
B11: 6mer-2-762 (peptide)
peptide: KFEERK
B12: 6mer-2-732 (peptide)
peptide: KPTWRK
B13: 6mer-2-724 (peptide)
peptide: KYTMKK
B14: 6mer-2-753 (peptide)
peptide: RYEHRR
B15: 6mer-2-743 (peptide)
peptide: KHTMKR
B16: 6mer-2-745 (peptide)
peptide: KNTERR
B17: 6mer-2-763 (peptide)
peptide: KMKERR
B18: 6mer-2-772 (peptide)
peptide: RHPAKK
B19: 6mer-2-747 (peptide)
peptide: RANFRR
B20: 6mer-2-776 (peptide)
peptide: RFPWRK
B21: 6mer-2-738 (peptide)
peptide: KPWFKK
B22: 6mer-2-758 (peptide)
peptide: RFSFKK
B23: 6mer-2-730 (peptide)
peptide: RNTHKR
B24: 6mer-2-757 (peptide)
peptide: RIPNKR
B25: 6mer-2-737 (peptide)
peptide: KDSVRR
B26: 6mer-2-742 (peptide)
peptide: KNNWRR
B27: 6mer-2-728 (peptide)
peptide: RMTMKK
B28: 6mer-2-749 (peptide)
peptide: KMWKRK
B29: 6mer-2-741 (peptide)
peptide: KNEKKR
B30: 6mer-2-750 (peptide)
peptide: RKCVKR
B31: 6mer-2-754 (peptide)
peptide: KADGRR
B32: 6mer-2-752 (peptide)
peptide: KINWRR
B33: 6mer-2-761 (peptide)
peptide: RTEPRK
B34: 6mer-2-740 (peptide)
peptide: KIDIRR
B35: 6mer-2-731 (peptide)
peptide: KASWKK
B36: 6mer-2-756 (peptide)
peptide: KPTNRK
B37: 6mer-2-736 (peptide)
peptide: KNNHKK
B38: 6mer-2-734 (peptide)
peptide: KHCHRR
B39: 6mer-2-775 (peptide)
peptide: KMSMKK
B40: 6mer-2-773 (peptide)
peptide: KPDARR
B41: 6mer-2-766 (peptide)
peptide: RPTFRK
B42: 6mer-2-725 (peptide)
peptide: KAHMKK
B43: 6mer-2-751 (peptide)
peptide: RPHWKR
B44: 6mer-2-727 (peptide)
peptide: RDMIKR
B45: 6mer-2-778 (peptide)
peptide: RNAPKK
B46: 6mer-2-729 (peptide)
peptide: RCPDKR
B47: 6mer-2-735 (peptide)
peptide: KMNAKK
B48: 6mer-2-744 (peptide)
peptide: KDHPRK
B49: 6mer-2-746 (peptide)
peptide: RIKVRK
B50: 6mer-2-764 (peptide)
peptide: RNAVKK
B51: 6mer-2-726 (peptide)
peptide: KHHKKK
B52: 6mer-2-771 (peptide)
peptide: KITARR
B53: 6mer-2-767 (peptide)
peptide: RICGRK
B54: 6mer-2-770 (peptide)
peptide: KPNMKK
B55: 6mer-2-739 (peptide)
peptide: RIHAKK
B56: 6mer-2-769 (peptide)
peptide: RCPFRK

molecular target: acetylcholine receptor; test: SPR, AchR immobilised on CM5 chip, peptide 10 uM

Row | Binding affinity (RU) | Binder
1 | 23 | B1
2 | 15 | B2
3 | 29 | B3
4 | 22 | B4
5 | 18 | B5
6 | 23 | B6
7 | 18 | B7
8 | 31 | B8
9 | 17 | B9
10 | 28 | B10
11 | 24 | B11
12 | 24 | B12
13 | 24 | B13
14 | 18 | B14
15 | 18 | B15
16 | 17 | B16
17 | 19 | B17
18 | 15 | B18
19 | 29 | B19

Row | Binding affinity (RU) | Binder
20 | 12 | B20
21 | 29 | B21
22 | 18 | B22
23 | 26 | B23
24 | 19 | B24
25 | 19 | B25
26 | 32 | B26
27 | 23 | B27
28 | 20 | B28
29 | 30 | B29
30 | 29 | B30
31 | 12 | B31
32 | 29 | B32
33 | 29 | B33
34 | 12 | B34
35 | 19 | B35
36 | 26 | B36
37 | 29 | B37
38 | 17 | B38

Row | Binding affinity (RU) | Binder
39 | 26 | B39
40 | 11 | B40
41 | 23 | B41
42 | 25 | B42
43 | 12 | B43
44 | 11 | B44
45 | 21 | B45
46 | 30 | B46
47 | 21 | B47
48 | 19 | B48
49 | 26 | B49
50 | 31 | B50
51 | 25 | B51
52 | 26 | B52
53 | 13 | B53
54 | 24 | B54
55 | 17 | B55
56 | 13 | B56
